Assay results published in article PMC7924340 (Toxins, 2021).

How the values were obtained:
Experiment in all cases: radioligand binding
[1] = biological target: Acetylcholine binding protein from Aplysia californica (Aplysia californica)
[2] = biological target: Acetylcholine binding protein from Lymnaea stagnalis (Lymnaea stagnalis) (UniProt P58154)
[3] = biological target: Muscle-type nAChR from the electric organs of Torpedo californica (Torpedo californica (endogenous in electric organ))
human α7 nAChR (human) = human α7 nAChR (human) (UniProt P36544)
human α7 nAChR = biological target: T1, human α7 nAChR (human, UniProt P36544 23-502); details: one partner purified
T1 construct: also called hα7 nAChR

[4] = biological target: T2, Acetylcholine binding protein from Lymnaea stagnalis (Lymnaea stagnalis, UniProt P58154 20-229); details: both partners purified
T2 construct: also called AChBP L. stagnalis; L. stagnalis AChBP

T1 sequence (P36544 23-502): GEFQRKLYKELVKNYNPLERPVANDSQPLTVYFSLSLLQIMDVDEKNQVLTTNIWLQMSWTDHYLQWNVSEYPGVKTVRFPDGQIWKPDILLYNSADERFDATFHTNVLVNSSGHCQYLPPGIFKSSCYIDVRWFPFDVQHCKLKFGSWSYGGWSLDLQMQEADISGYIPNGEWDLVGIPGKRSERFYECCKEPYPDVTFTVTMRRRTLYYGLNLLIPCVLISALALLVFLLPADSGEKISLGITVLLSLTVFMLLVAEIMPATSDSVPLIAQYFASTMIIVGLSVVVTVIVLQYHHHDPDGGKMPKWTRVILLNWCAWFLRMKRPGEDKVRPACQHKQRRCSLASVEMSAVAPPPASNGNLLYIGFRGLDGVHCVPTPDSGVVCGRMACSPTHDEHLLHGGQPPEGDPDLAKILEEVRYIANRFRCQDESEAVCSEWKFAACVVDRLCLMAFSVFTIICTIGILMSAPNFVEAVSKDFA

Tx-NM3-1 (from UniProt P01388 1-71) (natural protein)
IC50 [1]: 3200 nM
IC50 [2]: 203 nM
IC50 [3]: 1.61 nM
IC50 (human α7 nAChR (human)): 4.84 nM

α-bungarotoxin from krait Bungarus multicinctus venom (from UniProt P60615 22-95) (natural protein)
IC50 [1]: 155 nM

B1: Tx-NM4 (natural protein)
chain: IRCFITPDVTSQICADGHVCYTKTWCDNFCASRGKRVDLGCAATCPTVKPGVNIKCCSTDNCNPFPTRNRP
IC50 [1]: 2350 nM
IC50 [3]: 2.17 nM
IC50 (human α7 nAChR): 26.9 nM
IC50 [4]: 1160 ± 40 nM

B2: α-bungarotoxin from krait Bungarus multicinctus venom (natural protein)
chain: IVCHTTATSPISAVTCPPGENLCYRKMWCDAFCSSRGKVVELGCAATCPSKKPYEEVTCCSTDKCNPHPKQRPG
IC50 [4]: 17.2 ± 0.7 nM

B3: Long type neurotoxin I from cobra N. oxiana (natural protein)
chain: ITCYKTPIPITSETCAPGQNLCYTKTWCDAWCGSRGKVIELGCAATCPTVESYQDIKCCSTDDCNPHPKQKRP
IC50 [1]: 1200 nM
IC50 [4]: 73.4 ± 1.3 nM
